Patent US20200277397A1 (Genmab, published 2020)
Residue numbers refer to the chain shown, from its start. Names may count otherwise.

Legend:
[1] = target: T1, full length cynomolgus monkey 5T4 (cynomolgus monkey, UniProt Q4R8Y9 35-420); assay: flow cytometry, HEK-293 cells transfected with cynomolgus monkey 5T4 (right panel), PE anti-human IgG F(ab')2, MFI PE
T1 construct: Uniprot Q4R8Y9; also called cynomolgus monkey 5T4 on HEK-293 cells
T1 sequence: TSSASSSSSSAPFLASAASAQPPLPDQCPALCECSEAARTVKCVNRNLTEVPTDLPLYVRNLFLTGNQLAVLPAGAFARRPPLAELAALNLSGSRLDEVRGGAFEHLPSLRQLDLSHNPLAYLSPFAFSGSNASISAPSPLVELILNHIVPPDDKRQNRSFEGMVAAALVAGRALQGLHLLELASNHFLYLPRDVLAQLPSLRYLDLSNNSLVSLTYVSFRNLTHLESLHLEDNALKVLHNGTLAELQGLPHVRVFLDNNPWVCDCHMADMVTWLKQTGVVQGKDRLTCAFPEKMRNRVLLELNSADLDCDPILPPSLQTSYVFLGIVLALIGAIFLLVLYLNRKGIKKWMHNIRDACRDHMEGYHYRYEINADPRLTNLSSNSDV

full length human 5T4 [2] = target: T2, full length human 5T4 (human, UniProt Q13641 32-420); assay: flow cytometry, MDA-MB-231 cells, PE anti-human IgG F(ab')2, MFI PE
T2 construct: Uniprot Q13641; Used here also for endogenous 5T4 on the human tumour cell lines
T2 sequence: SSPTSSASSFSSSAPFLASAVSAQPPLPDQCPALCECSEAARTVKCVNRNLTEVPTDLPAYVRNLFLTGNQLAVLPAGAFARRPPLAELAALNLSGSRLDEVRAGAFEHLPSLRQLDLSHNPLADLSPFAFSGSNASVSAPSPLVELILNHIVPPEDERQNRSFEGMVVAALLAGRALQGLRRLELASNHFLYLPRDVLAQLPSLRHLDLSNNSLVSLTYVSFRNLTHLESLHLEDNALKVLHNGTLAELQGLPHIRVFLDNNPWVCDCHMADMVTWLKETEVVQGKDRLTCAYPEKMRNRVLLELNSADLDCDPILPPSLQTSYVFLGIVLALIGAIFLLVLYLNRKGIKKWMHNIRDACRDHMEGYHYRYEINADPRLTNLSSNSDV

[3] = target: T1, full length cynomolgus monkey 5T4; assay: flow cytometry, HEK-293 cells transfected with cynomolgus monkey 5T4 (right panel), PE anti-human IgG F(ab')2, MFI PE; remark: listed apart in the source
full length human 5T4 [4] = target: T2, full length human 5T4; assay: flow cytometry, HeLa cells, PE anti-human IgG F(ab')2, MFI PE
full length human 5T4 [5] = target: T2, full length human 5T4; assay: flow cytometry, MDA-MB-231 cells, PE anti-human IgG F(ab')2, MFI PE; remark: listed apart in the source
[6] = target: T1, full length cynomolgus monkey 5T4; assay: flow cytometry, HEK-293 cells transfected with cynomolgus monkey 5T4 (right panel), PE anti-human IgG F(ab')2, MFI PE; remark: listed apart in the source
full length human 5T4 [7] = target: T2, full length human 5T4; assay: flow cytometry, HeLa cells, PE anti-human IgG F(ab')2, MFI PE; remark: listed apart in the source
full length human 5T4 [8] = target: T2, full length human 5T4; assay: flow cytometry, HeLa cells (left panel), FITC anti-human IgG F(ab')2, MFI FITC
Procedure: (§1) After washing twice in staining buffer, cells were incubated in 50 μL secondary antibody at 4° C. for 30 min. […] Next, cells were washed twice in staining buffer, re-suspended in 120 μL staining buffer and analyzed on a BD LSRFortessa FACS (BD Biosciences, USA). Binding curves were analyzed using non-linear regression (sigmoidal dose-response with variable slope) using GraphPad Prism V7.02 software (GraphPad Software, San Diego, Calif., USA).

full length human 5T4 [9] = target: T2, full length human 5T4; assay: flow cytometry, MDA-MB-231 cells (right panel), FITC anti-human IgG F(ab')2, MFI FITC
Procedure: as §1

full length human 5T4 [10] = target: T2, full length human 5T4; assay: flow cytometry, HEK-293 cells transfected with human 5T4 (left panel), PE anti-human IgG F(ab')2, MFI PE
[11] = target: T1, full length cynomolgus monkey 5T4; assay: flow cytometry, HEK-293 cells transfected with full length cynomolgus monkey 5T4 (right panel), FITC anti-human IgG F(ab')2, MFI FITC
Procedure: (§2) Binding of monovalent and bivalent 5T4 antibodies was analysed using HEK-293 cells transiently transfected with full length human (left panels) or cynomolgus monkey 5T4 (right panels). Cells were incubated with increasing concentrations of antibodies, as indicated. After secondary labelling with FITC conjugated goat-anti-human IgG F(ab′)2, binding was analysed by flow cytometry. […] Data are presented as mean fluorescence intensity (MFI) values of two technical replicates±SD.
(§3) Experiments were performed in technical duplicate. After washing twice in staining buffer, cells were incubated in 50 μL secondary antibody at 4° C. for 30 min. […] Cells were washed twice in staining buffer, re-suspended in 30 μL staining buffer and analyzed on an iQue Screener (Intellicyt Corporation, USA). Binding curves were analyzed using non-linear regression (sigmoidal dose-response with variable slope) using GraphPad Prism V7.02 software (Graph Pad Software, San Diego, Calif., USA).

full length human 5T4 [12] = target: T2, full length human 5T4; assay: flow cytometry, HeLa cells, PE anti-human IgG F(ab')2, MFI PE; remark: listed apart in the source
full length human 5T4 [13] = target: T2, full length human 5T4; assay: flow cytometry, MDA-MB-231 cells, PE anti-human IgG F(ab')2, MFI PE; remark: listed apart in the source
full length human 5T4 [14] = target: T2, full length human 5T4; assay: flow cytometry, HeLa cells (left panel), FITC anti-human IgG F(ab')2, MFI FITC; remark: listed apart in the source
Procedure: as §1

full length human 5T4 [15] = target: T2, full length human 5T4; assay: flow cytometry, MDA-MB-231 cells (right panel), FITC anti-human IgG F(ab')2, MFI FITC; remark: listed apart in the source
Procedure: as §1

full length human 5T4 [16] = target: T2, full length human 5T4; assay: flow cytometry, HEK-293 cells transfected with human 5T4 (left panel), PE anti-human IgG F(ab')2, MFI PE; remark: listed apart in the source
[17] = target: T1, full length cynomolgus monkey 5T4; assay: flow cytometry, HEK-293 cells transfected with cynomolgus monkey 5T4 (right panel), PE anti-human IgG F(ab')2, MFI PE; remark: listed apart in the source
full length human 5T4 [18] = target: T2, full length human 5T4; assay: flow cytometry, HEK-293 cells transfected with full length human 5T4 (left panel), FITC anti-human IgG F(ab')2, MFI FITC
Procedure: as §2, §3

[19] = target: T1, full length cynomolgus monkey 5T4; assay: flow cytometry, HEK-293 cells transfected with full length cynomolgus monkey 5T4 (right panel), FITC anti-human IgG F(ab')2, MFI FITC; remark: listed apart in the source
Procedure: as §2, §3

full length human 5T4 [20] = target: T2, full length human 5T4; assay: flow cytometry, HEK-293 cells transfected with full length human 5T4 (left panel), FITC anti-human IgG F(ab')2, MFI FITC; remark: listed apart in the source
Procedure: as §2, §3

[21] = target: T1, full length cynomolgus monkey 5T4; assay: flow cytometry, HEK-293 cells transfected with full length cynomolgus monkey 5T4 (right panel), FITC anti-human IgG F(ab')2, MFI FITC; remark: listed apart in the source
Procedure: as §2, §3

B1: IgG1-5T4-076-FEAR (antibody, V domains shown)
VH: QVQLVQSGAEVKKPGASVKVSCKASGYTFTSYGISWVRQAPGQGLEWMGWISAYNGNTNYAQKLQGRVTMTTDTSTRTAYMELRSLRSDDTAVYYCARDPGYFDWLYGDYWGQGTLVTVSS
VL: AIQLTQSPSSLSASVGDRVTITCRASQGISSALAWYQQKPGKAPKLLIYDASSLESGVPSRFSGSGSGTDFTLTISSLQPEDFATYYCQQFNSYPRTFGQGTKVEIKR
notes: Human IgG1 FEAR, kappa (as for m12)
With B1 the “EC50 (read off the curve)” value [1] was about 0.01 µg/mL.

B2: IgG1-5T4-207-FEAR (antibody, V domains shown)
VH: QVQLQQWGAGLLKPSETLSLTCAVYGGSFSGYYWTWIRQPPGKGLEWIGEIDHSESTNYNPSLKSRVTISVDTSKNQFSLKLSSVTAADTAVYYCAGWFGELYHYYYGMDVWGQGTTVTVSS
VL: EIVLTQSPATLSLSPGERATLSCRASQSVSSYLAWYQQKPGQAPRLLIYDASNRATGIPARFSGSGSGTDFTLTISSLEPEDFAVYYCQQRSNWPLTFGGGTKVEIKR
notes: as for B1
In the case of B2, the “EC50 (read off the curve)” value (full length human 5T4 [2]) is reported as about 0.02 µg/mL and the “EC50 (read off the curve)” value [3] is reported as about 0.1 µg/mL.

B3: bsIgG1-huCD3-H101G-FEALx5T4-106-FEAR (bispecific antibody)
heavy 1: not shown
VL: not shown
heavy 2: EVQLVQSGAEVKKPGESLKISCKGSGYRFTSYWIGWVRQMPGKGLEWMGIIYPGDSDARYSPSFQGQVTISADKSISTAYLQWSSLKASDTGMYYCARSVLFDYWGQGTLVTVSSASTKGPSVFPLAPSSKSTSGGTAALGCLVKDYFPEPVTVSWNSGALTSGVHTFPAVLQSSGLYSLSSVVTVPSSSLGTQTYICNVNHKPSNTKVDKRVEPKSCDKTHTCPPCPAPEFEGGPSVFLFPPKPKDTLMISRTPEVTCVVVAVSHEDPEVKFNWYVDGVEVHNAKTKPREEQYNSTYRVVSVLTVLHQDWLNGKEYKCKVSNKALPAPIEKTISKAKGQPREPQVYTLPPSREEMTKNQVSLTCLVKGFYPSDIAVEWESNGQPENNYKTTPPVLDSDGSFFLYSRLTVDKSRWQQGNVFSCSVMHEALHNHYTQKSLSLSPGK
light: AIQLTQSPSSLSASVGDRVTITCRASQGISSALAWYQQKPGKAPKLLIYDVSNLESGVPSRFSGSGSGTDFTLTISSLQPEDFATYYCQQFNSYPHTFGQGTKLEIKRTVAAPSVFIFPPSDEQLKSGTASVVCLLNNFYPREAKVQWKVDNALQSGNSQESVTEQDSKDSTYSLSSTLTLSKADYEKHKVYACEVTHQGLSSPVTKSFNRGEC
For B3, the “EC50 (read off the curve)” value (full length human 5T4 [4]) was about 0.1 µg/mL, the “EC50 (read off the curve)” value (full length human 5T4 [5]) was about 0.1 µg/mL and the binding result [6] was “binds”.

B4: bsIgG1-huCD3-H101G-FEALx5T4-207-FEAR (bispecific antibody)
heavy 1: not shown
VL: not shown
heavy 2: QVQLQQWGAGLLKPSETLSLTCAVYGGSFSGYYWTWIRQPPGKGLEWIGEIDHSESTNYNPSLKSRVTISVDTSKNQFSLKLSSVTAADTAVYYCAGWFGELYHYYYGMDVWGQGTTVTVSSASTKGPSVFPLAPSSKSTSGGTAALGCLVKDYFPEPVTVSWNSGALTSGVHTFPAVLQSSGLYSLSSVVTVPSSSLGTQTYICNVNHKPSNTKVDKRVEPKSCDKTHTCPPCPAPEFEGGPSVFLFPPKPKDTLMISRTPEVTCVVVAVSHEDPEVKFNWYVDGVEVHNAKTKPREEQYNSTYRVVSVLTVLHQDWLNGKEYKCKVSNKALPAPIEKTISKAKGQPREPQVYTLPPSREEMTKNQVSLTCLVKGFYPSDIAVEWESNGQPENNYKTTPPVLDSDGSFFLYSRLTVDKSRWQQGNVFSCSVMHEALHNHYTQKSLSLSPGK
light: not shown
For B4, the “EC50 (read off the curve)” value (full length human 5T4 [7]) was about 0.04 µg/mL, the “EC50 (read off the curve)” value (full length human 5T4 [2]) was about 0.04 µg/mL and the “EC50 (read off the curve)” value (full length human 5T4 [8]) was about 0.05 µg/mL. The “EC50 (read off the curve)” value (full length human 5T4 [9]) was about 0.1 µg/mL, the “EC50 (read off the curve)” value (full length human 5T4 [10]) was about 0.05 µg/mL and the “EC50 (read off the curve)” value [3] was about 0.03 µg/mL. For the same binder, the “EC50 (read off the curve)” value [11] was about 0.1 µg/mL.

B5: bsIgG1-huCD3-H101G-FEALx5T4-226-FEAR (bispecific antibody)
heavy 1: not shown
VL: not shown
heavy 2: B4 heavy 2 with T35S, E55G, G97A, Y103W, H104D
light: not shown
B5 was tested, and the “EC50 (read off the curve)” value (full length human 5T4 [12]) was about 0.04 µg/mL, the “EC50 (read off the curve)” value (full length human 5T4 [13]) was about 0.04 µg/mL and the “EC50 (read off the curve)” value (full length human 5T4 [14]) was about 0.02 µg/mL. The “EC50 (read off the curve)” value (full length human 5T4 [15]) was about 0.09 µg/mL, the “EC50 (read off the curve)” value (full length human 5T4 [16]) was about 0.09 µg/mL and the “EC50 (read off the curve)” value [17] was about 0.06 µg/mL. For the same binder, the “EC50 (read off the curve)” value (full length human 5T4 [18]) was about 0.2 µg/mL and the “EC50 (read off the curve)” value [19] was about 0.1 µg/mL.

B6: bsIgG1-huCD3-H101G-FEALx5T4-H8-FEAR (bispecific antibody)
heavy 1: not shown
VL 1: not shown
heavy 2: EVQLQQSGPDLVKPGASVKISCKASGYSFTGYYMHWVKQSHGKSLEWIGRINPNNGVTLYNQKFKDKAILTVDKSSTTAYMELRSLTSEDSAVYYCARSTMITNYVMDYWGQVTSVTVSSASTKGPSVFPLAPSSKSTSGGTAALGCLVKDYFPEPVTVSWNSGALTSGVHTFPAVLQSSGLYSLSSVVTVPSSSLGTQTYICNVNHKPSNTKVDKRVEPKSCDKTHTCPPCPAPEFEGGPSVFLFPPKPKDTLMISRTPEVTCVVVAVSHEDPEVKFNWYVDGVEVHNAKTKPREEQYNSTYRVVSVLTVLHQDWLNGKEYKCKVSNKALPAPIEKTISKAKGQPREPQVYTLPPSREEMTKNQVSLTCLVKGFYPSDIAVEWESNGQPENNYKTTPPVLDSDGSFFLYSRLTVDKSRWQQGNVFSCSVMHEALHNHYTQKSLSLSPGK
VL 2: SIVMTQTPTFLLVSAGDRVTITCKASQSVSNDVAWYQQKPGQSPTLLISYTSSRYAGVPDRFIGSGYGTDFTFTISTLQAEDLAVYFCQQDYNSPPTFGGGTKLEIK
B6 was tested, and the binding result (full length human 5T4 [20]) was “binds” and the “EC50 (read off the curve)” value [21] was about 0.1 µg/mL.
